Experimental data from US10465177B2, “Maltooligosyl trehalose trehalohydrolase (MTHase) mutant and application thereof” (Jiangnan University, priority 2018, dated 2019).
Where a chain is given by its changes, count along the chain named. In names and notes the source's numbering stands.

Legend:
[1] = substrate: OC[C@H]1O[C@H](O[C@H]2[C@H](O)[C@@H](O)[C@@H](O[C@H]3[C@H](O)[C@@H](O)[C@@H](O[C@H]4[C@H](O)[C@@H](O)[C@@H](O[C@H]5[C@H](O)[C@@H](O)[C@@H](O[C@H]6[C@H](O)[C@@H](O)C(O)O[C@@H]6CO)O[C@@H]5CO)O[C@@H]4CO)O[C@@H]3CO)O[C@@H]2CO)[C@H](O)[C@@H](O)[C@@H]1O; assay: purified protein, by the assay type; conditions: other: wild type enzyme, maltohexose substrate, 60° C.
[2] = substrate: OC[C@H]1O[C@H](O[C@H]2[C@H](O)[C@@H](O)[C@@H](O[C@H]3[C@H](O)[C@@H](O)[C@@H](O[C@H]4[C@H](O)[C@@H](O)[C@@H](O[C@H]5[C@H](O)[C@@H](O)[C@@H](O[C@H]6[C@H](O)[C@@H](O)C(O)O[C@@H]6CO)O[C@@H]5CO)O[C@@H]4CO)O[C@@H]3CO)O[C@@H]2CO)[C@H](O)[C@@H](O)[C@@H]1O; assay: purified protein, by the assay type; assay type: biochemical, Sulfolobus acidocaldarius; conditions: other: mutant M140L/L202P/L218D/Y323G/F338S/I404T, maltohexose substrate, 60° C.

B1: maltooligosyl trehalose trehalohydrolase (MTHase) derived from Sulfolobus acidocaldarius, wild type (WT), SEQ ID NO.2 (Sulfolobus acidocaldarius) (protein)
chain: MFSFGGNIEKNKGIFKLWAPYVNSVKLKLSKKLIPMEKNDEGFFEVEIDDIEENLTYSYIIEDKREIPDPASRYQPLGVHDKSQLIRTDYQILDLGKVKIEDLIIYELHVGTFSQEGNFKGVIEKLDYLKDLGITGIELMPVAQFPGNRDWGYDGVFLYAVQNTYGGPWELAKLVNEAHKRGIAVILDVVYNHIGPEGNYLLGLGPYFSDRYKTPWGLTFNFDDRGCDQVRKFILENVEYWFKTFKIDGLRLDAVHAIFDNSPKHILQEIAEKAHQLGKFVIAESDLNDPKIVKDDCGYKIDAQWVDDFHHAVHAFITKEKDYYYQDFGRIEDIEKTFKDVFVYDGKYSRYRGRTHGAPVGDLPPRKFVVFIQNHDQVGNRGNGERLSILTDKTTYLMAATLYILSPYIPLIFMGEEYYETNPFFFFSDFSDPVLIKGVREGRLKENNQMIDPQSEEAFLKSKLSWKIDEEVLDYYKQLINIRKRYNNCKRVKEVRREGNCITLIMEKIGIIASFDDIVINSKITGNLLIGIGFPKKLKKDELIKVNRGVGVYQLE
In the case of B1, the Km [1] is reported as 3.89 ± 0.34 mM.

B2: maltooligosyl trehalose trehalohydrolase (MTHase) derived from Sulfolobus acidocaldarius (parent SEQ ID NO.2), mutant M140L/L202P/L218D/Y323G/F338S/I404T … (protein)
chain: B1 chain with M140L, L202P, L218D, Y323G, F338S, I404T
notes: sextuple site-directed mutant of the 556-aa parent
B2 showed a Km [2] of 3.4 ± 0.94 mM.
